Consider three substances from US20030232051A1.

Holding throughout (test): cell-based or functional assay
The target in test [1] is HA-2DL4 (RY-GT) mutant (human) (UniProt Q99706).
The target of test [2] is HA-2DL4 (epitope-tagged 2DL4) (human) (UniProt Q99706).
Test [3] deals with CD16 (on human NK cells) (human) (UniProt P08637).
Test [4] deals with 2B4 (CD244) (on human NK cells) (human) (UniProt Q9BZW8).
2B4 (CD244) (on human NK cells) (human), sequence (Q9BZW8 22-370): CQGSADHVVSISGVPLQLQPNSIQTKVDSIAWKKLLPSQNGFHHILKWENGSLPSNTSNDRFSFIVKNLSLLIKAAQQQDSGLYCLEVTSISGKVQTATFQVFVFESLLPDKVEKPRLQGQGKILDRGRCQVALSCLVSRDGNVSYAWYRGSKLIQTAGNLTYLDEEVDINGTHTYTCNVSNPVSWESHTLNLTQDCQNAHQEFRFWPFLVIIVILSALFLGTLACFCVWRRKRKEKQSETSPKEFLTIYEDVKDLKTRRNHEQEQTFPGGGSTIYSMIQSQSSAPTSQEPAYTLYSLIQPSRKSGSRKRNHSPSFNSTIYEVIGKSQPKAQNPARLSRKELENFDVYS

CD16 (on human NK cells) (human), sequence (P08637 17-254): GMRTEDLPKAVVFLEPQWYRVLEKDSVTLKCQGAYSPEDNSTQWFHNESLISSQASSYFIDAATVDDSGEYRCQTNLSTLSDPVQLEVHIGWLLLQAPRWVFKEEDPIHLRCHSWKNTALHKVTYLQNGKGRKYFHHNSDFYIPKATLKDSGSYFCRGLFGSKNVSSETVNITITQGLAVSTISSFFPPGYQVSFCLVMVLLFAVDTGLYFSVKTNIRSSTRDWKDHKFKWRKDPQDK
HA-2DL4 (RY-GT) mutant (human), sequence (Q99706 24-377, change not shown): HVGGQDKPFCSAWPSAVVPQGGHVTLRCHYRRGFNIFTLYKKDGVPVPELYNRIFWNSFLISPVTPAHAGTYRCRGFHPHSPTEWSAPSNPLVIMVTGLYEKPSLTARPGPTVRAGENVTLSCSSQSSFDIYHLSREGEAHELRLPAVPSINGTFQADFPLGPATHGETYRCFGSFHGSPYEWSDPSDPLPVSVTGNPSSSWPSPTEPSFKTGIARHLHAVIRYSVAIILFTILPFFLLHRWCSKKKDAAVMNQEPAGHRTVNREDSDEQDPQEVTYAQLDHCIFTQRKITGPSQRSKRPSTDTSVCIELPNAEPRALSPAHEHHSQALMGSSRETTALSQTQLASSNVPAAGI
HA-2DL4 (epitope-tagged 2DL4) (human), sequence (Q99706 24-377): as the sequence (Q99706 24-377, change not shown) above

On to “anti-HA mAb 16B12 (IgG1; Covance) (antibody)”, for which the fold activation of lysis of P815 cells by vaccinia-infected IL-2-activated NK cells (fold over control Ig) in test [1] was determined as 0.56; in test [2], 2.9.
Take “anti-CD16 mAb 3G8 (IgG1; Medarex) (antibody)”: in test [3], the increase in IFN-gamma release by IL-2-activated NK cells with P815 cells over that induced by control IgG (fold over control IgG) turned out to be 20.1, the increase in IFN-gamma release by resting NK cells with P815 cells over control IgG (fold over control IgG) is 4.2, the ratio of lysis of P815 cells by IL-2-activated NK cells over that obtained with control Ig (fold over control Ig) stood at 4.8 and the ratio of lysis of P815 cells by resting NK cells over that obtained with control Ig (fold over control Ig) worked out at 4.9.
With “anti-2B4 mAb C1.7 (IgG1; Beckman Coulter) (antibody)”, in test [4], the increase in IFN-gamma release by IL-2-activated NK cells with P815 cells over that induced by control IgG (fold over control IgG) came out at 1.55, the increase in IFN-gamma release by resting NK cells with P815 cells over control IgG (fold over control IgG) came to 2.1, the ratio of lysis of P815 cells by IL-2-activated NK cells over that obtained with control Ig (fold over control Ig) came out at 3.3 and the ratio of lysis of P815 cells by resting NK cells over that obtained with control Ig (fold over control Ig) was 3.1.
